System: K4 kissing-loop RNA reporter
Test: apparent KD of K4 kissing-loop reporter; higher = weaker reporter binding
Conditions: Eterna round: R107
Protocol: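 RNA-MaP round R107: designed RNA switches with theophylline, tryptophan, arginine or FMN aptamers are transcribed on-chip within common flanks. They are titrated with a labelled K4 kissing-loop RNA reporter in RNA-MaP buffer (100 mM Tris pH 7.5, 80 mM KCl, 4 mM MgCl2), without ligand or with the indicated ligand. Median apparent KD per design.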

[1] = input ligand: theophylline 20 uM
[2] = input ligand: tryptophan 2.4 mM
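Note: bound reporter read as fluorescence of individual clusters on recovered sequencing chips by microscopy, with normalized cluster intensities fitted with a binding model.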

Sequence | apparent KD of K4 kissing-loop reporter (input ligand: FMN 200 uM) [nM] | apparent KD of K4 kissing-loop reporter (input ligand: arginine 13.2 mM) [nM] | apparent KD of K4 kissing-loop reporter (input ligand: none) [nM] | apparent KD of K4 kissing-loop reporter [1] [nM] | apparent KD of K4 kissing-loop reporter [2] [nM]
AAGUGUGUGGCGGCCGCCACUAGAAUCCAGUGAUGUUGGAGUUAUCAUGUAAAUGAUAAUCAACAUAGGACCGGGCCAUAUAGAA [Same State - Tryptophan B (Freestyle 8)] | 630 | 377 | 701 | 441 | 349
AAGUGUUCUAGUGAUACCAGACAUUUCAAUUACAUUAAUAUAGCUAAGUGAUGUUUAGCAGUCCCUUGGCAGCACUAUUUCACUA [JR_SSTheophyB_Sub016] | 130 | 144 | 135 | 149 | 131
AAUAAAAUCACGGCCGCCACUGAUUACCAUAUUAGGAGUGAUGUUCCUAUGACUAUAUAAUUUAACAGGACCGGGUGAAUAUUUA [JR_ExcTryptoB_Sub011] | 105 | 103 | 107 | 106 | 94.3
AAUAACUAGUAUAUUUUUAAUAAUACAGAUACCAGUGAUAAUAGACACCCUUGGCAGCUGAUCGAGUGAUGUUCGUUUAUUUUAA [#11 K4 Theophylline A Same State] | 80.2 | 86.9 | 85 | 129 | 64.7
AAUAAGCAUGGAAGGAGCGUAGUCCAGUGAUGUUGGAGUUAAAUACCAGUGAUGUUGGUUAUACAGGUAGGUCGCCAUAAAGCUU [Exclusion Arginine B Gf 6] | 92.4 | 64.8 | 89.3 | 83.2 | 75.4
AAUAAGGUCGCCGAUACCAGCGCAGGCAGAGCAAAGCUCUGCCUGGUAGUGAUGUUACCGCGCCCUUGGCAGCGGUGGCACGACC [Omei KL Theo B SS C v5] | 64.8 | 27.1 | 71.3 | 71.7 | 85.9
AAUAAGUGUCAGCGAGUGAUGUUCGACGAUACCAGACUCGAUAGAGUCCCUUGGCAGCGUAACGCAUGCCAAACUGGCACAAUAA [#SwitchBubble 8 #K4Early] | 444 | 444 | 611 | 507 | 450
AAUACGAAGCAGUGAUGUUGCUUAUGAGAAGGAGCGCACGAAAGUGCAGGUAGGUCGCUCAGCCAAGUGGACGAAAACGUCCACA [whbob_SS_Arginine_A_sa108] | 96.4 | 116 | 98.4 | 127 | 90.6
AAUAUAGUGAUGUUAUAUAAGAAGGAGUUACGAGGACCGGUACGGCCGCCACUCGAAACGAGUGAGGGCCCGGGAGAUUGGGCCC [SSTryptA.G] | 339 | 275 | 320 | 436 | 262
ACACAGAGUUGCCGAGUGAUGUUCGGCUUACGAGGACCGGUACGGCCGCCACUCGUUACUCUGUGUUUUGGACACCAAGGCGUAG [Edvemaquan] | 565 | 492 | 675 | 497 | 169
ACCAUCAAAGAUGGCCAGGACACCGCUGAUACCAGAGUGAAAACACUCCCUUGGCAGCAGGUGAGUGAUGUUCACAGUCCAUGGA [Omel KL Theo A SS B v2] | 566 | 422 | 588 | 901 | 361
ACCUACGAUCACAAUAGUGAUUGUAGGAACUAGGAUAUGCUGAAAAGCAGAAGGAGUGAUGUUCCGUCAUGAAUAACAUGACAAA [FmnAX 5 #OpenEnded #K4Late #CoaxialStacking] | 251 | 525 | 495 | 594 | 336
ACGAUCAUGGCAGGAUAUACGAAUGCAUUAGGGCUGCCAGUGAUGUUGGUGGACCGAGGACGUAGAGUAGAAGGGCCGACUUAAA [Leonmain] | 138 | 169 | 139 | 86.4 | 157
ACGCGCGCGAGUGAUGUUCGGAGCGGCUGGCAGGAUAUGUAGCAAUGCAGAAGGGUCGUGGCGCGUCCAGGGUAACCUGGACGCG [#2 Exclusion - FMN A Attempt #26 (HarryS)] | 280 | 229 | 1040 | 455 | 719
ACGCUAGCUACCGAAAGGUAGCUAGCGAGUGAGGAUAUGUGGAAACACAGAAGGCACAGCGCAGUGAUGUUGUGCGGCGGAAGCG [whbob_SS_FMNA__2th168] | 604 | 221 | 631 | 664 | 473
ACGCUGGAUGAAUAACAUCUAGCGAAAAUUCGAGGACCGGUACGGCCGCCACUCGAGCUAACUGCGAGUGAUGUUCGAUAAUAAA [Mat - Mod of OpenEnded 3 - D6] | 196 | 374 | 309 | 497 | 72.1
ACGUAGUUCUAGGAUACCAGCCAAGGAGCGCAGGACAAAAGUCCUGCCGCCAGUGAUGUUGGCCCUUGGCAGCCUAGAACUACGA [Omei KL Theo B Exc B v1] | 193 | 162 | 145 | 165 | 160
ACGUAGUUCUAGGAUACCAGCCAAGGUCGCCAGGACAAAAGUCCUGGCGCCAGUGAUGUUGGCCCUUGGCAGCCUAGAACUACGA [Omei KL Theo B Exc B v6] | 195 | 176 | 176 | 174 | 203
ACGUAUAUCAGAGGAUAUCGUAUUAAUAUUUUAUCUAUAUAUAUAUGCAGUGAUGUUGCUAUAAUUCGAGAAGGCUGAUUUACGA [JR_ExcFMNB_Sub011] | 109 | 109 | 84 | 120 | 81.4
ACGUCAUAUGUAAUGGUGGUUUCGAUCGAUACCAGUAGCGAGAGUUACCCUUGGCAGCGACAUGAGUGAUGUUCAUGUAUGAAGA [KL-XTheo-A2 #analogue] | 116 | 109 | 107 | 120 | 105
ACUAUCAUUACGCAUGGAGUGAUGUUUCAGCGAGGACCGGUACGGCCGCCACUCGUUACGUGGUUAGAGCCAAUGUUCGAGAAGC [theeternabot_exclusion_KL_Trp_A_39] | 1170 | 832 | 927 | 1270 | 520

Sequence | apparent KD of K4 kissing-loop reporter (input ligand: FMN 200 uM) [nM] | apparent KD of K4 kissing-loop reporter (input ligand: arginine 13.2 mM) [nM] | apparent KD of K4 kissing-loop reporter (input ligand: none) [nM] | apparent KD of K4 kissing-loop reporter [1] [nM] | apparent KD of K4 kissing-loop reporter [2] [nM]
ACUAUGGAGUGAUGUUCCCGCGUCAUUGAUACCAGAAUGUAUACCUUCCCUUGGCAGCAAUUCAUCGCACGUAUACUUAUACAAG [theeternabot_sameState_KL_Theo_A_31] | 585 | 541 | 665 | 841 | 541
AGAAGAGUGAUGUUCUUCUAUAUCUCAGAAGGAGCGACAUUAAUGUCAGGUAGGUCGCUGAGAUGAAAUCUCACACAGAUCUUGG [Arg A SS t8a] | 145 | 154 | 149 | 178 | 125
AGAAUAAUAAAUUUGGAGUGAUGUUCCGGACGAGGACCGGUACGGCCGCCACUCGAAAGCAGUCUGCGAAAGCAGACUGCAAGGA [Tesla SS Tryp A 1] | 817 | 449 | 580 | 349 | 645
AGACCACAAAGUGGUCAGUGUUCGCUGCGGCGAGGACCGGUACGGCCGCCACUCGCGAGUGAUGUUCGCGAGCGCAGCGAACACA [Omei KL Tryp A Exc A v3] | 89.4 | 88.8 | 92.7 | 65 | 88.5
AGACCCUGGUAGGAUACCAGCGGCAUGCAGUGCGAGAGAGCGUAGUGAUGUUACGAGACCCGCCCUUGGCAGCCUGGGAAUGUGU [theeternabot_exclusion_KL_Theo_B_50] | 90.1 | 67.8 | 79.8 | 75.5 | 72.6
AGACUACCACACUGUCAAUAGACAGUGAACUCGGAUAUGCUGAUAAGCAGAAGGAGUGAUGUUCCGAGGUAGUCAAUAAAAUAAU [FmnAX 13 C32+G66] | 263 | 316 | 568 | 448 | 521
AGACUACCACACUGUCAAUAGACAGUGAACUCGGAUAUGCUGAUAAGCAGAAGGAGUGAUGUUCCUAGGUAGUCAAUAAAAUAAU [FmnAX 13 C32] | 160 | 242 | 376 | 370 | 359
AGACUACCUACACUGUCAAUAGACAGUGACUAGGAUAUGCUGAUAAGCAGAAGGAGUGAUGUUCCUAAUAAAAGGUGGUAGUCAU [FmnAX 19 #SwitchBubble #StaticStem #K4Early] | 309 | 258 | 230 | 284 | 173
AGACUACUGACAGGAUAUAACAUAUUAGCUCGUAUACCAAAGGUAUACGAGCACCUUCUAGUGAUGUUAGAAGGGUCGGUAGUCA [Omei KL FMN B Exc B v1] | 297 | 99.8 | 106 | 96.2 | 118
AGAGAGGUGUUUUUUUGAUGUGAGUAAUGGCGAGGACCGGUACGGCCGCCACUCGGGUGAUGUUAGUGAUGUUGAUGUAGUGAUG [p'pmullin] | 79.4 | 66.6 | 71.1 | 131 | 77
AGAGUCAGACAAAAGUCUGGCUCAGCCGAAGGAGCGUCCGUAAGGACAGGUAGGUCGCGGCUAUUUGAGUGAUGUUUGGGUUCCU [KL-SSArg-A20] | 281 | 144 | 231 | 233 | 212
AGAGUUAAUUAGUCAUUUUUCACAUUAAGUCAGGAUAUCGUAUUUUCGAGAAGGGACACAUGCUAGUGAUGUUAGCUAUUUCUCA [JR_Nu_ExcFMNA_Sub021] | 63.6 | 93.9 | 68.3 | 105 | 56.9
AGAGUUAUGAGAGGAUAUGCGGCUAGUACUCAAAGAGUACUAGCAGCGGAGUGAUGUUCUGUGAAAGCAGAAGGUUCAUAACUCA [#07 K4 FMN B Same State] | 159 | 1350 | 1100 | 907 | 1350
AGAUCUGUAACAGAUACCAGAGGACGAUGAUCGGACAGUGAUGUUAUCUGUCAGUCGUCGCUCCCUUGGCAGCUGUUACAGAUCA [Omei KL Theo B SS B v3] | 78.1 | 43.1 | 73.7 | 94.9 | 65.2
AGAUGACAGGGAGGAUAUCCUAAUAUGGGUGAUGUUAGCGAUGUUGAAGGUGUAGUGAUGUUAUGCGGAGAAGGCCCUGUUGUUU [BDazzled - #23 - Exc. FMN B] | 82.4 | 61.7 | 115 | 78.7 | 78.5
AGCAAUAUCACGGCCGCCACUGAAUAUUGUUUUUAUAGUUAUAAAUCUUGCCAGUGAUGUUGGUUCAGGACCGGGUGAGUUAAUA [JR_SSTryptoB_Sub003] | 572 | 596 | 625 | 748 | 429
AGCAGCAAAUCCUAGUGAUGUUAGGAUAUGUAGGAUAUCGGGAUACCGAGAAGGACAGAAGGAGGAGUGAUGUUCCUAAGCUGCA [FmnAX 24 #DoubleAptamer #DoubleK4 #SwitchBubble] | 143 | 112 | 114 | 122 | 107
AGCCAUCACACGGCCGCCACUGAGUAGUGAUGUUGCUUGUAAAUCAGUCACCGCAUUAAUGCCGACAGGACCGGGUGCAUCGAGG [theeternabot_exclusion_KL_Trp_B_17] | 327 | 142 | 327 | 394 | 247
AGCGAUGUUUUCUCUAAGAGUGAUGUUUUUCGAGGACCGGUACGGCCGCCACUCGAAUAAAGAGUGUGGUAGUGAGCUGUUGACU [qqmullin] | 622 | 256 | 451 | 442 | 278
AGCUAUUAGACGGCCGCCACUUGCUCUGAGACCUGACAUGGAACCAGUGAUGUUGGUUUGCGUGUAAGGACCGGGUUUGGUGGCG [Tiesbi] | 107 | 92.2 | 99.1 | 88.7 | 104
AGGAGUGAUGUUCCUACAUACACGGUCCGACGAGGACCGGUACGGCCGCCACUCGCGUCCCAGUGAUGUUGGGAUUUGGCGUACA [Exclusion Tryptophan A Gf 16] | 162 | 168 | 180 | 141 | 144

From the supplement of paper PMC9170038
